Patent US20240166767A1 (SCIRHOM, published 2024)
Positions count from the first letter of the chain named.

B1: humanized antibody 42-B-04 (antibody, V domains shown)
VH: QVTLRESGPALVKPTQTLTLTCTFSGFSLSTFGRGVGWIRQPPGKALEWLAHIWWDDEKYYNSALKSRLTISKDTSKNQVVLTITNMDPVDTATYYCARIQNYGSNYWYFDVWGQGTLVTVSS
VL: AIQLTQSPSSLSASVGDRVTITCRASSRISYMFWYQQKPGKAPKVLIYDTSNLASGVPSRFSGSGSGTDYTLTISSLQPEDFATYYCQQWNAYPLTFGQGTKLEIK
notes: Tested as whole humanized antibody produced in CHO cells and detected with anti-human IgG; the general methods speak of human IgG1/Kappa; also called clone 42-B-04
B2: humanized antibody 42-B-02 (antibody, V domains shown)
VH: B1 VH
VL: B1 VL with A92S
notes: Tested as whole humanized antibody from transient expression of heavy chain/kappa light chain pairs in CHO cells, detected with anti-human IgG; the general methods speak of human IgG1/Kappa; also called clone 42-B-02
B3: humanized antibody 23-B-04 (antibody, V domains shown)
VH: B1 VH with R34M, Q101S, D111N
VL: B1 VL with R28S, I29V, F33Y
notes: Tested as whole humanized antibody produced in CHO cells and detected with anti-human IgG; the general methods speak of human IgG1/Kappa; also called clone 23-B-04

Experiments:
endogenous human iRhom2 = target: T1, endogenous human iRhom2 (human, UniProt Q6PJF5 1-856); assay: cell-based or functional assay
T1 sequence: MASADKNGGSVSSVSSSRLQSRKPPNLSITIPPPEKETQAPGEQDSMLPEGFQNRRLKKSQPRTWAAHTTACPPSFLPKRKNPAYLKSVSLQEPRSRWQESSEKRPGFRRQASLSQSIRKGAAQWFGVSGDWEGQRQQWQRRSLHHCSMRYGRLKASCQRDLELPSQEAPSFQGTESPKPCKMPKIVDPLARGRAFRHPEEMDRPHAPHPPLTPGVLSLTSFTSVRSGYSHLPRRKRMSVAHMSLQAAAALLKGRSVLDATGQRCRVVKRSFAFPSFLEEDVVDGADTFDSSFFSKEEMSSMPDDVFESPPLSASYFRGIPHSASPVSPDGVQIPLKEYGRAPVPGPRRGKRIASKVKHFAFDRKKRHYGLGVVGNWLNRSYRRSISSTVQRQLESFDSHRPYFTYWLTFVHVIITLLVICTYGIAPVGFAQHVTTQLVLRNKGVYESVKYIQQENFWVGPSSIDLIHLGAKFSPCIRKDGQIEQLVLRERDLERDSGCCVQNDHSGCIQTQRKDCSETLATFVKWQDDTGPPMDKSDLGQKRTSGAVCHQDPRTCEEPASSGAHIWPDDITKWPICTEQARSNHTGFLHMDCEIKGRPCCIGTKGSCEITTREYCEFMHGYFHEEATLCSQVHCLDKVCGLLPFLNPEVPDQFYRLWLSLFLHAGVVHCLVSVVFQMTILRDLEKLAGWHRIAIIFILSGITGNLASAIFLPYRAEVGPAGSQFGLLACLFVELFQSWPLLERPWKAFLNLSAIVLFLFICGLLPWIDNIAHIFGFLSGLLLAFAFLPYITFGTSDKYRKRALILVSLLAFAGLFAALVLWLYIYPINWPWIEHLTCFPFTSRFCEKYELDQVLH

[1] = target: T2, human iRhom1 full length wild type C-terminally tagged with 3 consecutive copies of the T7 epitope (human, UniProt Q96CC6 1-855); assay: FACS on MEF-DKO-hiR1-FL-WT-T7 cells
T2 construct: also called hiR1-FL-WT-T7; human iRhom1 variant
T2 sequence: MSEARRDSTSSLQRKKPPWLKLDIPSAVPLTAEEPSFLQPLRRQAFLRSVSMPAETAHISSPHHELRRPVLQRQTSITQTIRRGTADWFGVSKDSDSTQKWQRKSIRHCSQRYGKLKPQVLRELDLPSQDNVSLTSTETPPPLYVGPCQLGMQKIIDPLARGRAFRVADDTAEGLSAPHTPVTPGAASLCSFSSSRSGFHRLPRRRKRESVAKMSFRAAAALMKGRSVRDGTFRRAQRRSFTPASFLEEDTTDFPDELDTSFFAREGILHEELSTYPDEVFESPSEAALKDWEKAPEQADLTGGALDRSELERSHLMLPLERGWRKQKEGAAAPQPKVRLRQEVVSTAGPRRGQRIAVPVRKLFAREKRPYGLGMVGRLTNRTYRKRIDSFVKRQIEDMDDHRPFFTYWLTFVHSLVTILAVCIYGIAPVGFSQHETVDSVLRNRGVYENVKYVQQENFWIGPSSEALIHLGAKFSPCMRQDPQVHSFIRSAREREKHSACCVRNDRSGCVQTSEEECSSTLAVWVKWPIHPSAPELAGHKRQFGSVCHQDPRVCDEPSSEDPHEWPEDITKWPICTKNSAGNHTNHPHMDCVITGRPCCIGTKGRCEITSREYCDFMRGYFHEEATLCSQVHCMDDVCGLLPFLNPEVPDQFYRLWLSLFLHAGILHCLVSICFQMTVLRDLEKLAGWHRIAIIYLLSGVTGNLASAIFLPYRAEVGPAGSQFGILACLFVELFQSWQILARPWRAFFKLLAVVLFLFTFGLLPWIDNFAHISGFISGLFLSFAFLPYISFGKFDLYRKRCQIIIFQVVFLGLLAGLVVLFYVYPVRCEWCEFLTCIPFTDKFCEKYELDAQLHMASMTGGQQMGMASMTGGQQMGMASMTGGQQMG
Protocol: In brief, in addition to immortalized MEF-DKO-EV control cells and MEF-DKO-hiR2-FL-WT-T7 cells (as already described in example 3), MEF-DKO-hiR1-FL-WT-T7 cells were harvested with 10 mM EDTA in PBS, washed and resuspended in FACS buffer (PBS, 3% FBS, 0.05% sodium azide), and seeded in Nunc U-bottom 96-well plates (Thermo Fisher Scientific, USA) at approximately 3×10⁵ cells per well. To pellet cells and remove supernatants, the plates were centrifuged at 1,500 rpm and 4° C. for 3 minutes. For primary staining, cells were resuspended in 100 μl per well of either FACS buffer alone (controls), mouse monoclonal anti-T7 IgG (Merck Millipore, USA) at 3 μg/ml FACS buffer or the humanized antibodies 16-B-03, 16-B-05, 16-B-07, 23-B-04, 42-B-02, 42-B-04 of the invention also at 3 μg/ml FACS buffer and incubated on ice for 1 hour. Afterwards, plates were centrifuged at 1,500 rpm and 4° C. for 3 minutes and washed twice with 200 μl per well of FACS buffer. For secondary staining of previous anti T7 staining, cells were spun down and resuspended in 100 μl per well of PE-conjugated goat anti-mouse IgG F(ab′)2 detection fragment (Dianova, Germany) diluted 1:100 in FACS buffer. For secondary staining of previous staining with humanized antibodies of invention, cells were spun down and resuspended in 100 μl per well of PE-conjugated goat anti-human IgG F(ab′)2 detection fragment (Dianova, Germany) diluted 1:100 in FACS buffer. Protected from light, the cell suspensions were incubated on ice for 1 hour. Plates were then centrifuged at 1,500 rpm and 4° C. for 3 minutes and washed three times with 200 μl per well of FACS buffer. Finally, cells were resuspended in 150 μl per well of FACS buffer and analyzed using a BD Accuri™ C6 Plus flow cytometer (Becton Dickinson, Germany).

Row | Binder | percent inhibition of LPS-induced release of TNFα from PBMCs from healthy donors (ELISA, antibody 3 µg/ml) (endogenous human iRhom2) [%] | percent inhibition of LPS-induced release of TNFα from THP-1 cells (ELISA, antibody 3 µg/ml) (endogenous human iRhom2) [%] | percent inhibition of PMA-induced release of HB-EGF from PBMCs from healthy donors (ELISA, antibody 3 µg/ml) (endogenous human iRhom2) [%] | percent inhibition of PMA-induced release of HB-EGF from THP-1 cells (ELISA, antibody 3 µg/ml) (endogenous human iRhom2) [%] | percent inhibition of PMA-induced release of HB-EGF from U-937 cells (ELISA, antibody 3 µg/ml) (endogenous human iRhom2) [%] | percent inhibition of PMA-induced release of IL-6R from PBMCs from healthy donors (ELISA, antibody 3 µg/ml) (endogenous human iRhom2) [%] | percent inhibition of PMA-induced release of IL-6R from THP-1 cells (ELISA, antibody 3 µg/ml) (endogenous human iRhom2) [%] | percent inhibition of PMA-induced release of IL-6R from U-937 cells (ELISA, antibody 3.33 µg/ml) (endogenous human iRhom2) [%] | percent inhibition of PMA-induced release of TGFα from PC3 cells (ELISA, antibody 10 µg/ml) (endogenous human iRhom2) [%] | percent inhibition of PMA-induced release of TNFα from U-937 cells (ELISA, antibody 3.33 µg/ml) (endogenous human iRhom2) [%] | binding result [1]
1 | B1 | 68.5 | 76.1 | 66.7 | 86.2 | 99.4 | 78.4 | 71.6 | 82.4 | 19.5 | 87.9 | no binding (tested: 3 µg/ml)
2 | B2 | 64.3 | 75.2 | 59.2 | 81.2 | 98.8 | 73.4 | 68.5 | 78.3 | 6.4 | 85 | no binding (tested: 3 µg/ml)
3 | B3 | 59.4 | 77.6 | 49.6 | 84.4 | 99.5 | 64.6 | 70.1 | 77.8 | 21.3 | 77.2 | no binding (tested: 3 µg/ml)
